Assay results taken from publication doi:10.1101/366336.

Assays:
[1] = molecular target: T1, hClp1 (human) (UniProt Q92989); assay: filter binding; conditions: cap analog
T1 sequence: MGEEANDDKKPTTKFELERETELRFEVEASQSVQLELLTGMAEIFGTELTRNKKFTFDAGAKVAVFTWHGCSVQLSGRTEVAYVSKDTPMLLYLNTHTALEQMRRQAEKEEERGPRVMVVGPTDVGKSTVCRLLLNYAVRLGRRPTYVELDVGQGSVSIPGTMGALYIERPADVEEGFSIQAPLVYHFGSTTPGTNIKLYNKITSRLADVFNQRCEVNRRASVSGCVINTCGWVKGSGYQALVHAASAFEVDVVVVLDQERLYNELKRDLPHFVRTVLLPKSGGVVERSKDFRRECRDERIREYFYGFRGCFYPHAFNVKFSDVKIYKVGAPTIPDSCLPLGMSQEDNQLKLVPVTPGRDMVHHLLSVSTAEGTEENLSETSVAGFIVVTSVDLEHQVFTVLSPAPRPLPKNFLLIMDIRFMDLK

[2] = molecular target: hPcf11 (in CF II);hClp1 (human;human) (UniProt O94913+Q92989); assay: filter binding; conditions: cap analog
hPcf11 (in CF II);hClp1 (human;human), sequence (O94913 whole entry, one chain of several): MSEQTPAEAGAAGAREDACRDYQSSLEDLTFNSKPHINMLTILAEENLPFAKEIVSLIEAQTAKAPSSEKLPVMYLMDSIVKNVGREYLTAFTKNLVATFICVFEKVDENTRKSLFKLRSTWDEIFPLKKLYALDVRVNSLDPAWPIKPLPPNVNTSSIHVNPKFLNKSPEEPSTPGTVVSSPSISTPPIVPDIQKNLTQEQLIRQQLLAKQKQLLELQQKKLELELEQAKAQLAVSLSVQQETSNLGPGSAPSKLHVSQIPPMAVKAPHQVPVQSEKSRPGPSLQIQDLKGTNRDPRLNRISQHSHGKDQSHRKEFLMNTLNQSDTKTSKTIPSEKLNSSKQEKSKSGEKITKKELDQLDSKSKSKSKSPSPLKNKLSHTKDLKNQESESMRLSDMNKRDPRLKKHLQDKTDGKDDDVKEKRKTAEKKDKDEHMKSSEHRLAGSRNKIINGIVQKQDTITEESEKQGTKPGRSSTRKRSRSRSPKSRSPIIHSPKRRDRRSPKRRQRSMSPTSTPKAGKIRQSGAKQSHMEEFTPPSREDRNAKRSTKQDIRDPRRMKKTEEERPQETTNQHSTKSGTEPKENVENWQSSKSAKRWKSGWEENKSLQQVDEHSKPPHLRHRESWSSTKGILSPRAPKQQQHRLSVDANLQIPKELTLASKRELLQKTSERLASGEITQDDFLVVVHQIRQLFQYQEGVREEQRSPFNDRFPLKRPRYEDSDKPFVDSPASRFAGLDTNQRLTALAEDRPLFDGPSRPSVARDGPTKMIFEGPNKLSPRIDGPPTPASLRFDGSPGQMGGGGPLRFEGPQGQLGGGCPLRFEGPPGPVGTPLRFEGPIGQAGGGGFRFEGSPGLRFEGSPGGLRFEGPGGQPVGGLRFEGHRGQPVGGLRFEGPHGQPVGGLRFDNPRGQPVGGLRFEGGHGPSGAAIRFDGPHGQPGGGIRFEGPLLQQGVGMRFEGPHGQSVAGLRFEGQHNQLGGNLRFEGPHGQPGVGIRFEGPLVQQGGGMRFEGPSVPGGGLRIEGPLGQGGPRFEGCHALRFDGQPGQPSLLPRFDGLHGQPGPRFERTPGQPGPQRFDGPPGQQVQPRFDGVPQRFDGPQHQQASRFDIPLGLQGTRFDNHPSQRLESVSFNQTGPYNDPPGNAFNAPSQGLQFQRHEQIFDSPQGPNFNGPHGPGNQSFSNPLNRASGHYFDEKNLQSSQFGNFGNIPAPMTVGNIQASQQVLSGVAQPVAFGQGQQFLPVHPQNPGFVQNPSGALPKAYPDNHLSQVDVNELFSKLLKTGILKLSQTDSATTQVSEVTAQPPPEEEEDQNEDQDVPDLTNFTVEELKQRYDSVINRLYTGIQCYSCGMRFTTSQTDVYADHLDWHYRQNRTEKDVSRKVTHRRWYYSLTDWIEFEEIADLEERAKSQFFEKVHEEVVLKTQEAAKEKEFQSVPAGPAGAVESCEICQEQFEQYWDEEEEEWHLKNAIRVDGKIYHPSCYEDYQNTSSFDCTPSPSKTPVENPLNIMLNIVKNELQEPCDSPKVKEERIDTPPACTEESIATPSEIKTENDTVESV

| Substance | K half [1] | K half [2] |
| --- | --- | --- |
| SV40 late RNA | 140 nM | 0.4 nM |
| L3 RNA | – | 0.9 nM |
